Experimental data reported in patent US20260242732A1.
Read-outs that look alike come from different tables or passages of the source.

Columns and labels:
[1] = target: recombinant human P-selectin (human) (UniProt P16109)
[2] = target: recombinant human P-selectin (human) (UniProt P16109); remark: listed apart in the source

Chain of UniProt P16109 (P16109 42-771 limits assumed): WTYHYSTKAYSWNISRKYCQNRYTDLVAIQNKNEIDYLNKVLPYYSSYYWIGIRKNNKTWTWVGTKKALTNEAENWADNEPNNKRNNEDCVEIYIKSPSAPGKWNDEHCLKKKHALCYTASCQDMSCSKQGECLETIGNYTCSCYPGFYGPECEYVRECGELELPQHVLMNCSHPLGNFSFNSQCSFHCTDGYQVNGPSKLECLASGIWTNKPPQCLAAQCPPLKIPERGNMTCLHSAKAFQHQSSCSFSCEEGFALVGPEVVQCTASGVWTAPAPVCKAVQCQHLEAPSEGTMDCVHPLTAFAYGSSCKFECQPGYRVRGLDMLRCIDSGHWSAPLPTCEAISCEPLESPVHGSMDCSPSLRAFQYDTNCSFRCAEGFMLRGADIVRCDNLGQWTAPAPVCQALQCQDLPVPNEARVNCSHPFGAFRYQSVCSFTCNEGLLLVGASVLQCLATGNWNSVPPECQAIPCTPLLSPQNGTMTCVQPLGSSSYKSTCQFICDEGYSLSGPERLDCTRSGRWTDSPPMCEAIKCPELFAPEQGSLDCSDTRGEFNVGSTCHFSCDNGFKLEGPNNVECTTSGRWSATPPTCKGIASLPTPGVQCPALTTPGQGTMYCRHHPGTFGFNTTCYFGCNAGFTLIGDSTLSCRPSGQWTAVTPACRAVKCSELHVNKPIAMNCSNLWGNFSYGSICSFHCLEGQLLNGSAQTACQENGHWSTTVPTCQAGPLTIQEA

Binder | Freq. of mCherry+ (BFP+ cells) at 1 ng/uL rhp-selectin [1] [%] | Freq. of mCherry+ (BFP+ cells) at 10 ng/uL rhp-selectin [1] [%] | Freq. of mCherry+ (BFP+ cells) at 25 ng/uL rhp-selectin [1] [%] | Freq. of mCherry+ (BFP+ cells) at 50 ng/uL rhp-selectin [1] [%] | Freq. of mCherry+ (BFP+ cells) at 100 ng/uL rhp-selectin [1] [%] | Freq. of mCherry+ (BFP+ cells) at 1 ng/uL rhp-selectin [2] [%] | Freq. of mCherry+ (BFP+ cells) at 10 ng/uL rhp-selectin [2] [%] | Freq. of mCherry+ (BFP+ cells) at 25 ng/uL rhp-selectin [2] [%] | Freq. of mCherry+ (BFP+ cells) at 50 ng/uL rhp-selectin [2] [%] | Freq. of mCherry+ (BFP+ cells) at 100 ng/uL rhp-selectin [2] [%]
LH (Crizanlizumab) scFv synNotch receptor (receptor, part only; not given: Myc tag, Notch core, Gal4, part only) chain, part: DIQMTQSPSSLSASVGDRVTITCKASQSVDYDGHSYMNWYQQKPGKAPKLLIYAASNLESGVPSRFSGSGSGTDFTLTISSLQPEDFATYYCQQSDENPLTFGGGTKVEIKRGGGGSGGGGSGGGGSQVQLVQSGAEVKKPGASVKVSCKVSGYTFTSYDINWVRQAPGKGLEWMGWIYPGDGSIKYNEKFKGRVTMTVDKSTDTAYMELSSLRSEDTAVYYCARRGEYGNYEGAMDYWGQGTLVTVSS | 2.1 | 13.2 | 15.6 | 15.8 | 12.1 | – | – | – | – | –
HL (Crizanlizumab) scFv synNotch receptor (receptor, part only; not given: Myc tag, Notch core, Gal4, part only) chain, part: QVQLVQSGAEVKKPGASVKVSCKVSGYTFTSYDINWVRQAPGKGLEWMGWIYPGDGSIKYNEKFKGRVTMTVDKSTDTAYMELSSLRSEDTAVYYCARRGEYGNYEGAMDYWGQGTLVTVSSGGGGSGGGGSGGGGSDIQMTQSPSSLSASVGDRVTITCKASQSVDYDGHSYMNWYQQKPGKAPKLLIYAASNLESGVPSRFSGSGSGTDFTLTISSLQPEDFATYYCQQSDENPLTFGGGTKVEIKR | – | – | – | – | – | 16.2 | 33 | 32.2 | 25.4 | 18.4
